# System: Escherichia coli TOP10
# Test: shrunken log2 fold change of peptide-encoding DNA abundance (4.5 h post-induction vs induction); higher = less antimicrobial activity (less host growth inhibition)
# Conditions: time post-induction: 4.5 h; library: site-saturation at positions 5, 18, 19, 20
# 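Also: peptides expressed intracellularly from a pBAD plasmid library in pooled LB shake-flask culture, induced with 0.3% L-arabinose, DNA abundance read by NGS, three biological replicates, DESeq2 with apeglm shrinkage.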
row,Sequence,shrunken log2 fold change
1,RRIRRRPPRLPRPRPRPVFNPRP,0.056
2,RRIRRRPPRLPRPRPRPVFSPRP,-0.0171
3,RRIRRRPPRLPRPRPRPVHGPRP,0.335
4,RRIRRRPPRLPRPRPRPVHKPRP,0.092
5,RRIRRRPPRLPRPRPRPVHWPRP,0.00204
6,RRIRRRPPRLPRPRPRPVIHPRP,-0.0832
7,RRIRRRPPRLPRPRPRPVMFPRP,0.155
8,RRIRRRPPRLPRPRPRPVNCPRP,0.148
9,RRIRRRPPRLPRPRPRPVNEPRP,0.196
10,RRIRRRPPRLPRPRPRPVNGPRP,0.0578
11,RRIRRRPPRLPRPRPRPVPQPRP,0.28
12,RRIRRRPPRLPRPRPRPVPVPRP,0.128
13,RRIRRRPPRLPRPRPRPVREPRP,0.0195
14,RRIRRRPPRLPRPRPRPVRFPRP,0.632
15,RRIRRRPPRLPRPRPRPVSIPRP,-0.0599
16,RRIRRRPPRLPRPRPRPVSRPRP,-0.0137
17,RRIRRRPPRLPRPRPRPVTIPRP,0.297
18,RRIRRRPPRLPRPRPRPVVSPRP,0.132
19,RRIRRRPPRLPRPRPRPVWFPRP,0.0857
20,RRIRRRPPRLPRPRPRPVYIPRP,-0.535
21,RRIRRRPPRLPRPRPRPWAPPRP,0.043
22,RRIRRRPPRLPRPRPRPWCRPRP,1.02
23,RRIRRRPPRLPRPRPRPWCVPRP,-0.032
24,RRIRRRPPRLPRPRPRPWDAPRP,0.143
25,RRIRRRPPRLPRPRPRPWDFPRP,0.0406

row,Sequence,shrunken log2 fold change
1,RRIRRRPPRLPRPRPRPWGGPRP,0.53
2,RRIRRRPPRLPRPRPRPWGWPRP,0.482
3,RRIRRRPPRLPRPRPRPWHHPRP,-0.242
4,RRIRRRPPRLPRPRPRPWHRPRP,-0.113
5,RRIRRRPPRLPRPRPRPWIHPRP,-0.147
6,RRIRRRPPRLPRPRPRPWIYPRP,-0.118
7,RRIRRRPPRLPRPRPRPWKWPRP,-0.00244
8,RRIRRRPPRLPRPRPRPWLGPRP,0.353
9,RRIRRRPPRLPRPRPRPWLLPRP,0.0822
10,RRIRRRPPRLPRPRPRPWMGPRP,-0.127
11,RRIRRRPPRLPRPRPRPWNGPRP,-0.346
12,RRIRRRPPRLPRPRPRPWPAPRP,0.448
13,RRIRRRPPRLPRPRPRPWPNPRP,-0.0193
14,RRIRRRPPRLPRPRPRPWRTPRP,-0.0112
15,RRIRRRPPRLPRPRPRPWSEPRP,-0.142
16,RRIRRRPPRLPRPRPRPWSYPRP,-0.573
17,RRIRRRPPRLPRPRPRPWTFPRP,-0.103
18,RRIRRRPPRLPRPRPRPWTHPRP,0.0267
19,RRIRRRPPRLPRPRPRPWTQPRP,-0.0997
20,RRIRRRPPRLPRPRPRPWVDPRP,0.0233
21,RRIRRRPPRLPRPRPRPWVMPRP,-0.123
22,RRIRRRPPRLPRPRPRPWWEPRP,1.82
23,RRIRRRPPRLPRPRPRPWWGPRP,0.288
24,RRIRRRPPRLPRPRPRPWWRPRP,0.463
25,RRIRRRPPRLPRPRPRPWYRPRP,-0.151

row,Sequence,shrunken log2 fold change
1,RRIRRRPPRLPRPRPRPYCIPRP,-0.264
2,RRIRRRPPRLPRPRPRPYDLPRP,-0.546
3,RRIRRRPPRLPRPRPRPYDQPRP,-0.0875
4,RRIRRRPPRLPRPRPRPYDVPRP,-0.0964
5,RRIRRRPPRLPRPRPRPYDYPRP,0.00863
6,RRIRRRPPRLPRPRPRPYEIPRP,-0.39
7,RRIRRRPPRLPRPRPRPYEKPRP,0.0137
8,RRIRRRPPRLPRPRPRPYESPRP,0.0181
9,RRIRRRPPRLPRPRPRPYFMPRP,-0.353
10,RRIRRRPPRLPRPRPRPYGLPRP,-0.0176
11,RRIRRRPPRLPRPRPRPYGPPRP,-0.64
12,RRIRRRPPRLPRPRPRPYGSPRP,-0.00192
13,RRIRRRPPRLPRPRPRPYINPRP,-0.832
14,RRIRRRPPRLPRPRPRPYIVPRP,-0.263
15,RRIRRRPPRLPRPRPRPYKPPRP,0.0267
16,RRIRRRPPRLPRPRPRPYLIPRP,-0.082
17,RRIRRRPPRLPRPRPRPYMNPRP,-0.621
18,RRIRRRPPRLPRPRPRPYNMPRP,-0.499
19,RRIRRRPPRLPRPRPRPYQTPRP,-0.071
20,RRIRRRPPRLPRPRPRPYQWPRP,-0.244
21,RRIRRRPPRLPRPRPRPYRAPRP,-0.47
22,RRIRRRPPRLPRPRPRPYRRPRP,0.0385
23,RRIRRRPPRLPRPRPRPYRVPRP,-0.0172
24,RRIRRRPPRLPRPRPRPYTAPRP,-0.447
25,RRIRRRPPRLPRPRPRPYTFPRP,-0.0103

row,Sequence,shrunken log2 fold change
1,RRIRRRPPRLPRPRPRPYTHPRP,-0.505
2,RRIRRRPPRLPRPRPRPYVCPRP,-0.374
3,RRIRRRPPRLPRPRPRPYWDPRP,-0.247
4,RRIRRRPPRLPRPRPRPYWTPRP,0.000827
5,RRIRRRPPRLPRPRPRPYYRPRP,-0.186
6,RRIRRRPPRLPRPRPRPYYYPRP,-0.9
7,RRIRSRPPRLPRPRPRPAAHPRP,0.154
8,RRIRSRPPRLPRPRPRPAAKPRP,0.155
9,RRIRSRPPRLPRPRPRPACQPRP,0.0147
10,RRIRSRPPRLPRPRPRPACRPRP,0.212
11,RRIRSRPPRLPRPRPRPAFMPRP,0.309
12,RRIRSRPPRLPRPRPRPAFPPRP,0.278
13,RRIRSRPPRLPRPRPRPAGEPRP,0.0686
14,RRIRSRPPRLPRPRPRPAGHPRP,-0.794
15,RRIRSRPPRLPRPRPRPAGNPRP,-0.0422
16,RRIRSRPPRLPRPRPRPAGWPRP,0.795
17,RRIRSRPPRLPRPRPRPAHPPRP,0.427
18,RRIRSRPPRLPRPRPRPAHQPRP,-0.0659
19,RRIRSRPPRLPRPRPRPAKRPRP,0.214
20,RRIRSRPPRLPRPRPRPAKYPRP,-0.215
21,RRIRSRPPRLPRPRPRPAMFPRP,-0.0843
22,RRIRSRPPRLPRPRPRPANTPRP,-0.268
23,RRIRSRPPRLPRPRPRPAQMPRP,0.437
24,RRIRSRPPRLPRPRPRPAQQPRP,0.409
25,RRIRSRPPRLPRPRPRPASHPRP,-0.167

row,Sequence,shrunken log2 fold change
1,RRIRSRPPRLPRPRPRPATKPRP,0.161
2,RRIRSRPPRLPRPRPRPCAPPRP,0.0418
3,RRIRSRPPRLPRPRPRPCCPPRP,-0.0457
4,RRIRSRPPRLPRPRPRPCCSPRP,-0.00502
5,RRIRSRPPRLPRPRPRPCDCPRP,-0.239
6,RRIRSRPPRLPRPRPRPCHDPRP,-0.105
7,RRIRSRPPRLPRPRPRPCIFPRP,-0.471
8,RRIRSRPPRLPRPRPRPCLKPRP,0.0091
9,RRIRSRPPRLPRPRPRPCLQPRP,-0.197
10,RRIRSRPPRLPRPRPRPCMMPRP,0.0683
11,RRIRSRPPRLPRPRPRPCNHPRP,-0.361
12,RRIRSRPPRLPRPRPRPCQGPRP,-0.028
13,RRIRSRPPRLPRPRPRPCTKPRP,-0.581
14,RRIRSRPPRLPRPRPRPCVAPRP,0.0901
15,RRIRSRPPRLPRPRPRPCVDPRP,0.00587
16,RRIRSRPPRLPRPRPRPCWLPRP,0.102
17,RRIRSRPPRLPRPRPRPCWVPRP,-0.272
18,RRIRSRPPRLPRPRPRPCYGPRP,-0.523
19,RRIRSRPPRLPRPRPRPDAGPRP,0.569
20,RRIRSRPPRLPRPRPRPDARPRP,0.1
21,RRIRSRPPRLPRPRPRPDDPPRP,0.0348
22,RRIRSRPPRLPRPRPRPDDQPRP,0.143
23,RRIRSRPPRLPRPRPRPDDTPRP,-0.144
24,RRIRSRPPRLPRPRPRPDENPRP,0.11
25,RRIRSRPPRLPRPRPRPDFLPRP,-0.0689

row,Sequence,shrunken log2 fold change
1,RRIRSRPPRLPRPRPRPDFVPRP,-0.106
2,RRIRSRPPRLPRPRPRPDGPPRP,0.0211
3,RRIRSRPPRLPRPRPRPDGQPRP,-0.00208
4,RRIRSRPPRLPRPRPRPDHLPRP,-0.0228
5,RRIRSRPPRLPRPRPRPDHQPRP,-0.263
6,RRIRSRPPRLPRPRPRPDICPRP,-0.0721
7,RRIRSRPPRLPRPRPRPDIIPRP,-0.16
8,RRIRSRPPRLPRPRPRPDIPPRP,-0.178
9,RRIRSRPPRLPRPRPRPDITPRP,0.0856
10,RRIRSRPPRLPRPRPRPDKFPRP,-0.143
11,RRIRSRPPRLPRPRPRPDLMPRP,-0.0144
12,RRIRSRPPRLPRPRPRPDMMPRP,-0.36
13,RRIRSRPPRLPRPRPRPDNYPRP,-0.303
14,RRIRSRPPRLPRPRPRPDPHPRP,-0.151
15,RRIRSRPPRLPRPRPRPDPTPRP,0.035
16,RRIRSRPPRLPRPRPRPDQDPRP,0.142
17,RRIRSRPPRLPRPRPRPDRLPRP,-0.168
18,RRIRSRPPRLPRPRPRPDRVPRP,-0.144
19,RRIRSRPPRLPRPRPRPDSAPRP,0.0412
20,RRIRSRPPRLPRPRPRPDSRPRP,0.148
21,RRIRSRPPRLPRPRPRPDSYPRP,-0.221
22,RRIRSRPPRLPRPRPRPDTAPRP,-0.0215
23,RRIRSRPPRLPRPRPRPDTHPRP,-0.448
24,RRIRSRPPRLPRPRPRPDVTPRP,-0.0165
25,RRIRSRPPRLPRPRPRPDWAPRP,0.236
